# Test results published in the DeepSol protein solubility set.
# Test: soluble on expression in E. coli; label from the status in PepcDB or PDB records
row,Sequence,soluble on expression in E. coli
1,MTTTTTVRQCRVTRIGSTELPPRVENAIQFLDDQCYEKLGGTVVMKWFGNRVPPEDHRQLSSFCHVVNLTKYDDDPKSRYHKDDIECACGTSSNLFFLKKFNEAVEKYPCDDDETITKAPTTEPSDDLWCWQLRSRSFASSPPPPRMKNAIQLLDDKCYAKLGGTTVMKWFGNVVTPEGKVCFVINLTDSKMKLYKKEIVCACGRQSYVFFLEGLILMREKYSCNDKTTTKSTRTTPSTTTAKQCYVRRTGSSVSPPRETDAIPMLDDQCYEKMGGTSVMDRFGNREPPKSVYEYSEFCLLVDVTLNGPAMETYQSDIECVCGISSLEFFLEKFEEAIKKYPCDNDGATEAATTKPTTTTVTTTTVPPKTDPPRTEPPKTEPPTTEPPKIEPPRTEPPKTEPPPTEPPKTEPPKTTPPKTEPPTTEPPNIPYCWQQQSRLFAPSPPPPRVNNTMPLIEDKCYAKLGDTLVMAWFGNRAPPKNFTEVLDFCTVAALTYNNESAVFSVFKKDIQCNCDKLSFSRFLKKLSEAMEKYQCNNVWTRTEAPETVTTRTEPPRTEPPRTIPPRTEAPRTEPPRTEPPKTEAPRTVRPKTEAPMTVPPRTEPPMTEAPRTEVPMTEPPKTEPPRTAPPRTEVSMTLPPETVPPNTEAPRTEVPMTVPPRTEPPKTEAPRTVPPKTEAPMTEVPMTGPSRTEVPMTEPPKTEQPRTAPPRTEVSMTLPPETVPPKTEAPRTEVPMTGPSRTEVPMTVTPETGLSSTVTSKTEPPKTTTEKRITPRTEVPKTVPPRTGPPMTVPPGTEAPTTEAPMTITPRTEQLRTEQLRTDQSKTVTPKTKITVWPTDYRGPI,not soluble
2,MTVIALRHLGPAERKSFARHLAGGDFPGKGAWDDGTVVLDRVLDGLGDEAGRALIEGALAKASRMVVVTLGGEAAARWTPEVLGPAFVYLLGEAIDADSPAVALAFLDGPGRPRLFAPRFSVMVPVYNHRDLIGACLDSIAAQSWPLWEAVVVDDGSTDGVATLLTERAAADPRLRWSSQANGGTGAALNACLAMAREEWIAWLSSDDLFAPDKLAAHAALLRRDGLAPAFHHTAVIRRNDAGEEQVVAPLGPLMTGSAGLRRLAMTSVNLIQGISIVVHRDLFAQTAGFDPRNRFTQDYAMWVRLMERTDPVYLPLVTAVTRVGAAQTTARHYQRTRAEAIAAILGALRDFSAGAPDDREARLEAVAALVMLASSPHGFLARYGLQGWYVARAMGLAAEAKVLGATFADVSARLGPWSVGHIHDPQAMGHLAMIESVFREDKAAAPIDPFRILTRMLISPTIPADLAEAITGFLRGDLPQPLEHHHHHH,not soluble
3,MTVKQTVEVTNKLGMHARPAMKLFELMQGFDAEVLLRNDEGTEAEANSVIALLMLDSAKGRQIEIEATGPQEVEALAAVIALFNSGFDED,not soluble
4,MTVKVCVCGGGNGAHTLSGLAASRDGVEVRVLTLFADEAERWTKALGADELTVIVNEKDGTQTEVKSRPKVITKDPEIAISGADVVILTVPAFAHEGYFQAMAPYVQDSALIVGLPSQAGFEFQCRDILGDKAAAVSMMSFETLPWACRIKEFGRKVEVLGTKSVLAASLIKGTAKTVDPLSTLQMLHGAEPVFRLAKHFLEMLIMSYSFVHPAILFGRWGSWDGKPVPEAPLFYQGIDQATADMLTACSNECKDVANAIMAACPGNDLSDVKDIYQWYLEYYHEDIQDDHDLYHAITTNKSYKGLVHPVKAVDGGVAPDFGNRYLTEDIPMGMIVFKGVAIAAGVAIPSNDKLIMWAQEKIGKEYLVDGALTGKDVATTRCPQRYGFNTLDAILTGKKHHHHH,soluble
5,MTVVIGVLALQGAFIEHVRHVEKCIVENRDFYEKKLSVMTVKDKNQLAQCDALIIPGGESTAMSLIAERTGFYDDLYAFVNPSKVTWGTCAGLIYISQQLSNEAKLVKTLNLLKVKVKRNAFGRQAQSSTRICDFSNFIPHCNDFPATFIRAPVIEEVLDPEHVQVLYKLDGKDNGGQELIVAAKQKNNILATSFHPELAENDIRFHDWFIREFVLKNYSK,not soluble
6,MTYNVWNFGESNGRYSALTARGISKETCQKAGYWIAKVDGVMYQVADYRDQNGNIVSQKVRDKDKNFKTTGSHKSDALFGKHLWNGGKKIVVTEGEIDMLTVMELQDCKYPVVSLGHGASAAKKTCAANYEYFDQFEQIILMFDMDEAGRKAVEEAAQVLPAGKVRVAVLPCKDANECHLNGHDREIMEQVWNAGPWIPDGVVSALSLRERIREHLSSEESVGLLFSGCTGINDKTLGARGGEVIMVTSGSGMVMSTFVRQQALQWGTAMGKKVGLAMLEESVEETAEDLIGLHNRVRLRQSDSLKREIIENGKFDQWFDELFGNDTFHLYDSFAEAETDRLLAKLAYMRSGLGCDVIILDHISIVVSASGESDERKMIDNLMTKLKGFAKSTGVVLVVICHLKNPDKGKAHEEGRPVSITDLRGSGALRQLSDTIIALERNQQGDMPNLVLVRILKCRFTGDTGIAGYMEYNKETGWLEPSSYSGEEESHSESTDWSNDTDF,soluble
7,MVAAWNRWDLSGIIKHWSPDIVHYSEDNEVSSADMVKLMEGGLKAFPDLQLEMKSIMAEEDRVALRITVTATHQGEFMGVQPTGQRVSWHLVEELRFVDGKVVEHWDVINMRPLLVRLGKLPDVPKVVLEASA,soluble
8,MVADNSEKSTKSVANGSLISTVSSKDDLPNAIIVTQVPEDVFDNKQDKANFSSLFTQIEKDIHFDFLRSFRRVRVIFSSPENATAAKLIVQGFSFKGHELKAFFAQRIYMSANSQMLSPPPLEKQFLISPPCSPPVGWEQTKDMPPVVCNFDLMARLASFAIDEKYEVHNGDELTPAIIVHPCETPIDVPSAIEMPRTPRPSSPCEQ,not soluble
9,MVAEGFRLDLLLTIAQLVPSTYHYQVKQLDKPDKDKDLKAEIQAIYDEHKGNYGYRRIHLELRNRGFSVNHKKVQGLMKELGLTARIRRRKRYKSYKGDVGKKAPNLIERAFEGAKPFEKCYTDVTEFALPNCAEKLYLSPVLDGYNSEIIDFTLSRSPNLIQVKTMLEKVFPEETYPNTILHSDQGWQYQHEVYHRFLASKGIRPSMSRKGTSTDNSMMESFFGVLKTEMFYGFEKNFKSLDQLEQAITEYIFYYNNKRIKTKLKGLSPVQYRTKSFQ,not soluble
10,MVAIDYVVIGAGYAGLMCAEALMDKGFKTLVFDMRESGGEIVVFSKLEEFRSKYEKYIEKIEEIRKDIPVDIGTVIKSKPVIINSGNGLKRYEARRVILATGATDTAPVKLNVLSKKIEGIYTLENALREISENNKIGEKVLIAAKDDVIVKLAESQLSDLGYDVEISELTNDIQVIGKERVEGVEISGVRYSCDTLVVYGGRNPFNPLKLRGTPVGNVVTCTYDYSKVEENVKNFLAKILEHHHHHH,not soluble
11,MVARISVGKNLYGALAYNQNKVDEGGAKVLSAHLLRYPEDGRFRPDESVRQFLEWMPNHYRTEKPVIHISLNPHPDDVLTDGQLAEIGREYMQRLGYGNQPYLVFKHEDIGRHHIHIVSLRVDSEGRKVSDKFEYRRSKEITELLEQKYGLHPAEGRKKGEEWQLKPVDVAKGDIKRQIACTLKPLLELYSFRTMGELRALLSLYNIGVEEVKGEIGGRTYHGILYTALDGNGETAATPIKSSRLGRTAGAQQLDRKMRESAARIKSAPCRERLRPLVADALRQSVDERDFRDRLAKEQIDLVLRRNGTDRIYGVTFIDHRSRTVLNGSRLGKEFSANMLNGHFQEQPPNSLSPLLPPVPSAVASGNGEKIPGGLLSDMEPELNYVPRYPKLLKPDKKKRRRRYGRQDLEHHHHHH,soluble
12,MVDLEQEFALGGRCLAFHGPLMYEAKILKIWDPSSKMYTSIPNDKPGGSSQATKEIKPQKLGEDESIPEEIINGKCFFIHYQGWKSSWDEWVGYDRIRAYNEENIAMKKRLANEAKEAKKSLLEHHHHHH,soluble
13,MVDMKTTHTSLPFAGHTLHFVEFDPANFCEQDLLWLPHYAQLQHAGRKRKTEHLAGRIAAVYALREYGYKCVPAIGELRQPVWPAEVYGSISHCGATALAVVSRQPIGVDIEEIFSAQTATELTDNIITPAEHERLADCGLAFSLALTLAFSAKESAFKASEIQTDAGFLDYQIISWNKQQVIIHRENEMFAVHWQIKEKIVITLCQHD,not soluble
14,MVEFVNDPNFKDLVVDTTIDNRNDEEPMTIRNFTELMIQFYKLGWMRGSGGAMGCISGSELMISPSALQKERIREQDVFVYNMKDKTEVQRPPNKRITVSSCSVLFSLIMKETGSECVIHTHSKCANLITQLIKSNVFEISHQEYIKGIYDPFSGKALKYSDTLTIPIIDNMPSESQLLVCAINRSPMQPDCFINIALFQEPIRGVLENYPQAIAVLVRNHGLFVWGPTWESTKIMTECIDYLLELSIEMLKNNIPLVNEEAFEKEDNLSDKMRTLMFGDMAPV,not soluble
15,MVEPQHNVMQMGGDFANNPNAQQFIDKMVNKHGFDRQQLQEILSQAKRLDSVLRLMDNQAPTTSVKPPSGPNGAWLRYRKKFITPDNVQNGVVFWNQYEDALNRAWQVYGVPPEIIVGIIGVETRWGRVMGKTRILDALATLSFNYPRRAEYFSGELETFLLMARDEQDDPLNLKGSFAGAMGYGQFMPSSYKQYAVDFSGDGHINLWDPVDAIGSVANYFKAHGWVKGDQVAVMANGQAPGLPNGFKTKYSISQLAAAGLTPQQPLGNHQQASLLRLDVGTGYQYWYGLPNFYTITRYNHSTHYAMAVWQLGQAVALARVQ,soluble
16,MVEVPSFRSNEHFPQLCDKVTVKWDKKRGRFVEAIEDIPIGTVVCVETGITVNVDPQNCYRCLKITENASFAYCKNCEEFYEPDEIACGEFDELGIFKLAAHLVFSYPFADIASLVQSSDPEPPSCAPKALSTQDIEAIFQLTPFPEIGEAFKAPAIQNAIKRIVESLETDENWGRLDQISRTMTFTKALRIMAERSAKNAHTIYSIEQIESQEDNLPMATGLFPISSIFNHSCTPNISGFFVRNTFIFVSQGVRAREELLDSYGVTYHQHTFEQRTNFLASVSGFICHCESCFKMKSLKVLEKPKKYPETIATNASCFTDITSYTENIPRGSKELENLIIAFARRPDSETYTELIFQFWKKFVENAKFRGITYDPYLVRPYVEMTILAWNKEVGCENEEKMSLLIVTHRLLRNCYVDLHPLSELVVKLVNVVANQNADEINRTLEKLKLRARMLWKYSEQSEDL,not soluble
17,MVEVVGVRFREAGHIYYFAPGKSEYIYNEKVLVESQQSKQLATVAIPKKTVDSDDLPEDLKPILNKATANDLEKEQKNLADAEAAKSIANEKIRAHDLKMKLVRVEYTFDRSKMIFYFTADGRIDFRELVKDLAAIFRTRIELRQIGVRDEAKILGGIGPCGRQLCCSTFLGDFMPVSIKMAKDQGLSLNPVKISGLCGRLMCCLKYENDEYEAAKKELPDYGKEVITPDGKGKVVGLNLLSRIVKVRLHGREIAADYDYEEIKEATAKVAAEKGDQNGLEHHHHHH,soluble
18,MVGAYSYSEGLETLVENGTITSQSTLQQWLEAELSYGAIRLEAAVMVRAYQAATMDDMETLCYWNLWLSAARETQELRNSSWQMGRSLMQLLGKIQPEILPLANAVGNPCNYAIAFGIASAHWQINIQAALLAYLHSWATNLITAGVKLIPLGQTAGQELLLQLQPLISHATVEIMSLKDDELSCCSWGLSLASMQHETQYTRLFRSLEHHHHHH,not soluble
19,MVGGDGATRREQSLCDSCYFAAFDLVDAPDTIEVMVCARCGAVHRGNRWVDIGADDYVDVAVAETTEALGVHLEAEDVDWEVRPEKLDDNTVRMHATFTGVVRDTHRTEQVAVTVKVSRQTCQRCGRIAGESYASTVQVRAVGRDPTSEETDRAAELAHRIVADMEATGDREAFVTEIGDAESGTDIKLSTTKIGLKLARKLVEEFGGDFEDHETLITEDDDGNEVYRVTYAVRLPEFVPGDVVDIAADDGGPVLVQSNHGNLKGVRVTTGEPYEASFEDGDSPDARKLGAVADATEATVVTVEDDAAIQILDPDTYEAQTVARPDYVDPDASTVPALKSRAGLHVLPDALEHHHHHH,not soluble
